Measurements taken from publication PMC6858323, “Multiple conformations facilitate PilT function in the type IV pilus” (Nature Communications, 2019).

B1: PilT from Pseudomonas aeruginosa (PilT^Pa), purified (enzyme)
chain: MDITELLAFSAKQGASDLHLSAGLPPMIRVDGDVRRINLPPLEHKQVHALIYDIMNDKQRKDFEEFLETDFSFEVPGVARFRVNAFNQNRGAGAVFRTIPSKVLTMEELGMGEVFKRVSDVPRGLVLVTGPTGSGKSTTLAAMLDYLNNTKYHHILTIEDPIEFVHESKKCLVNQREVHRDTLGFSEALRSALREDPDIILVGEMRDLETIRLALTAAETGHLVFGTLHTTSAAKTIDRVVDVFPAEEKAMVRSMLSESLQSVISQTLIKKIGGGRVAAHEIMIGTPAIRNLIREDKVAQMYSAIQTGGSLGMQTLDMCLKGLVAKGLISRENAREKAKIPENF
notes: PilT, Pseudomonas aeruginosa, expressed from pET28a:PilT^Pa; the cloning of this plasmid is not described; also called apo-PilT^Pa; wild-type PilT^Pa; source: E. coli BL21-CodonPlus, purified (Ni-NTA, Superdex 200 SEC)
B2: K58A PilT from Pseudomonas aeruginosa, purified (enzyme)
chain: MDITELLAFSAKQGASDLHLSAGLPPMIRVDGDVRRINLPPLEHKQVHALIYDIMNDAQRKDFEEFLETDFSFEVPGVARFRVNAFNQNRGAGAVFRTIPSKVLTMEELGMGEVFKRVSDVPRGLVLVTGPTGSGKSTTLAAMLDYLNNTKYHHILTIEDPIEFVHESKKCLVNQREVHRDTLGFSEALRSALREDPDIILVGEMRDLETIRLALTAAETGHLVFGTLHTTSAAKTIDRVVDVFPAEEKAMVRSMLSESLQSVISQTLIKKIGGGRVAAHEIMIGTPAIRNLIREDKVAQMYSAIQTGGSLGMQTLDMCLKGLVAKGLISRENAREKAKIPENF
notes: PilT, Pseudomonas aeruginosa, with K58A; the expression construct of the purified mutant is not described; also called K58A PilT^Pa; K58A mutant; source: purified

Molecular target: the molecule itself
Experiment: cryoEM 2D class averages; PilT^Pa 0.75 mg/ml without added nucleotide, 4 °C; top-view 2D class averages compared with projections of PilT crystal structures

Protein | stoichiometry N
B1 | 6
B2 | 6
